According to patent US20160068605A1:
pKd: −log10 of the molar value. Read-outs that look alike come from different tables or passages of the source.

Assays:
[1] = target: cell-surface CD3 epsilon on primary cynomolgus T cells (cynomolgus monkey) (UniProt Q95LI5); assay: saturation binding by flow cytometry on cynomolgus monkey T cells
[2] = target: cell-surface CD3 epsilon on primary human T cells (human) (UniProt P07766); assay: saturation binding by flow cytometry on primary human T cells (Donor 10006)
cell-surface CD3 epsilon on primary human T cells (human), sequence (P07766 23-207): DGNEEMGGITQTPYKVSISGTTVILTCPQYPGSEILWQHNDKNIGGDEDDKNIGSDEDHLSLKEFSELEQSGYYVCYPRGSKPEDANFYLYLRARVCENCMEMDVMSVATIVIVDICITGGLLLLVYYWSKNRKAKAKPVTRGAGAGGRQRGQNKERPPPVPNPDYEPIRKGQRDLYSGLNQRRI

[3] = target: IL3RA-PK (CD123 tagged with ProLink) in HEK293 IL3RA-PK/CSF2RB-EA cells (UniProt P26951)
[4] = target: IL3RA-PK (CD123 tagged with ProLink) in HEK293 IL3RA-PK/CSF2RB-EA cells (UniProt P26951); remark: listed apart in the source

cell-surface CD3 epsilon on primary cynomolgus T cells (cynomolgus monkey), sequence (Q95LI5 22-198): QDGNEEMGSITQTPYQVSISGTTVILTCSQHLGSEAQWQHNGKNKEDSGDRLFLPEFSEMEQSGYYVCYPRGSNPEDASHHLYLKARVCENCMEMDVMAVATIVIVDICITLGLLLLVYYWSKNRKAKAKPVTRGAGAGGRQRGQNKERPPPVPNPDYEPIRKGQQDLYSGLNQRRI

Substance	Antigen binding sites/cell [1] [sites/cell]	pKd [1]	Ab binding sites/cell [2] [sites/cell]	pKd [2]	EC50 (read off the curve): CD123/CD131 heteromerization (RLU) [3] [ng/mL]	EC50 (read off the curve): CD123/CD131 heteromerization (RLU) [4] [ng/mL]
SP34-2 (antibody)	55000	8.85	60000	8.38		
IL-3 (from UniProt P08700) (ligand)					3	6
